From patent US11001838B2, “Platform for screening phosphomevalonate decarboxylase” (The Regents of the University of California, priority 2017, dated 2021)

Columns and labels:
[1] = target: T1, Saccharomyces cerevisiae diphosphomevalonate decarboxylase (PMDsc, SEQ ID NO: 1) variant Y19H (Saccharomyces cerevisiae, UniProt P32377, Y19H); assay: In vitro kinetics of MVAP decarboxylation by PMDsc Y19H (coupled assay); assay type: biochemical
T1 construct: His tag; made in house; host or cells: E. coli Rosetta (DE3)
T1 sequence (P32377 1-396 Y19H): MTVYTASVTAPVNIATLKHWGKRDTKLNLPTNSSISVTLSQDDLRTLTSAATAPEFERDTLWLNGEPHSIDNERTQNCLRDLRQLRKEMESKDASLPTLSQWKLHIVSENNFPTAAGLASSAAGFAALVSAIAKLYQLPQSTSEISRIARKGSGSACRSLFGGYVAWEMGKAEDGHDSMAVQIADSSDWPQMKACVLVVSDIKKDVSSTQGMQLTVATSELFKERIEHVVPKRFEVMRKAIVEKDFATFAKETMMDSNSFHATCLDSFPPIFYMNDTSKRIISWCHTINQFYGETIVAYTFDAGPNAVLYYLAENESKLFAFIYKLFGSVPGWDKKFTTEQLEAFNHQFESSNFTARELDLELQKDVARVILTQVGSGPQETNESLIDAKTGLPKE

[2] = target: T2, Saccharomyces cerevisiae diphosphomevalonate decarboxylase (PMDsc, SEQ ID NO: 1) variant M212Q (Saccharomyces cerevisiae, UniProt P32377, M212Q); assay: In vitro kinetics of MVAP decarboxylation by PMDsc M212Q (coupled assay); assay type: biochemical; details: MVAP 0.100-4.0 mM, 4 mM ATP, pH 7.5; brackets: standard error
T2 construct: His tag; made in house; host or cells: E. coli Rosetta (DE3)
T2 sequence (P32377 1-396 M212Q): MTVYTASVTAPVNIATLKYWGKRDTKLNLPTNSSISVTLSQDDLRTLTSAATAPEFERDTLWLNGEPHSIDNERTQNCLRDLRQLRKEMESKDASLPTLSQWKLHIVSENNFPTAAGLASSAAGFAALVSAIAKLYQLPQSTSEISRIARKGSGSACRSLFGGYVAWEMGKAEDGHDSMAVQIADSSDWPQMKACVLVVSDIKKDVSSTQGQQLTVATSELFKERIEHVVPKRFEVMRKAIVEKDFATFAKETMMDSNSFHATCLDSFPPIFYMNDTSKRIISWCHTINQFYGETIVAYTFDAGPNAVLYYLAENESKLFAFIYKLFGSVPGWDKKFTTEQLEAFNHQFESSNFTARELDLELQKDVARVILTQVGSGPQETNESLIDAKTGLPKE

[3] = target: T3, Saccharomyces cerevisiae diphosphomevalonate decarboxylase (PMDsc), wild type, SEQ ID NO: 1 (Saccharomyces cerevisiae, UniProt P32377); assay: In vitro kinetics of MVAP decarboxylation by PMDsc WT (pyruvate kinase/lactate dehydrogenase coupled assay)
T3 sequence (P32377 1-396): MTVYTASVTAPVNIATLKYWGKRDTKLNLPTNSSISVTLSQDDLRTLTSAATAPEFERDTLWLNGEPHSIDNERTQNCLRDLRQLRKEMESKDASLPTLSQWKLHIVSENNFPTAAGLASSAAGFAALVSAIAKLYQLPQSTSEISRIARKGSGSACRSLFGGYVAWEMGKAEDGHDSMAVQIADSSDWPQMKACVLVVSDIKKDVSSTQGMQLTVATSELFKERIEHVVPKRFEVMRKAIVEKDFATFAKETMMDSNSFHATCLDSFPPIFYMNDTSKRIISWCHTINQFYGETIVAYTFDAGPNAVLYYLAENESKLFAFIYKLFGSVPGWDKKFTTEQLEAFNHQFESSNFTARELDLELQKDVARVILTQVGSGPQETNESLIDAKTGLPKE
Method: (§1) This turnover number (kobs) depends upon each mutant's kcat, KM, and KI, yielding a more accurate assessment of the turnover conditions in vivo (Kang et al., 2016).
(§2) In vitro enzyme kinetics of PMDsc were performed as described in the previous study (Kang et al., 2016). Briefly, enzymatic activity was determined by a spectrophotometric assay quantifying ADP product formation via the pyruvate kinase/lactate dehydrogenase coupled enzyme assay. Assay mixtures were prepared in 150 μL total volume containing 50 mM HEPES-KOH (pH 7.5), 10 mM MgCl2, 400 μM phosphoenolpyruvate, 400 μM NADH, 4 mM ATP, and 25 U of pyruvate kinase/lactate dehydrogenase. The reaction was initiated by enzyme after incubating PMDsc substrate and cofactor for fifteen minutes with coupled assay components. The MVAP was varied from 0.100-4.0 mM, and the reaction velocity was determined by monitoring the absorbance at 340 nm in a Spectramax 384plus microplate reader (Molecular Devices, USA). To obtain kinetic data relevant to non-competitive substrate inhibition, MVAP was varied from 0.100-100 mM. Enzyme concentration (ε=56,630 M^−1 cm^−1) was determined spectrophotometrically at 280 nm with a NanoDrop ND-1000 spectrophotometer. kcat and KM were derived for PMDsc mutants by fitting the initial velocities measured from 0.100-4.0 mM MVAP to the Michaelis-Menten equation; KI was determined for select mutants by fitting initial velocities measured from 0.100-100 mM MVAP to the non-competitive substrate inhibition equation. All kinetic analysis was performed in Graphpad Prism, version 7.0a.

[4] = target: T3, Saccharomyces cerevisiae diphosphomevalonate decarboxylase (PMDsc), wild type, SEQ ID NO: 1; design: His tag; made in house; host or cells: E. coli (Rosetta (DE3) is stated for the mutant plasmids); details: Kang et al., 2016, Krepkiy and Miziorko, 2004, cited from earlier work
[5] = target: T4, Saccharomyces cerevisiae diphosphomevalonate decarboxylase (PMDsc, SEQ ID NO: 1) variant R74G (Saccharomyces cerevisiae, UniProt P32377, R74G); assay: In vitro kinetics of MVAP decarboxylation by PMDsc R74G (coupled assay)
T4 sequence (P32377 1-396 R74G): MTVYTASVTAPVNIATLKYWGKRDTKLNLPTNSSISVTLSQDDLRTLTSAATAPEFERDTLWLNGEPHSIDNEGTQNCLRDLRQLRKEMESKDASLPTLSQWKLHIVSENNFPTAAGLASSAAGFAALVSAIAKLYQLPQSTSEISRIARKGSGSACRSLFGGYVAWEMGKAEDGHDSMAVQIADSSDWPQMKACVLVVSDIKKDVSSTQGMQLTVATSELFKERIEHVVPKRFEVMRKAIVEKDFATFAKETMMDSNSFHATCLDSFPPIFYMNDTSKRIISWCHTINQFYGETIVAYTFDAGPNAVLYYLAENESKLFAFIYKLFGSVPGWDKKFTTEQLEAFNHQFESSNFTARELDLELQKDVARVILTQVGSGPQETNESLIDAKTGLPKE
Method: as §1, §2

[6] = test system: E. coli DH1; details: from a previous study (Kang et al., 2016); cited from earlier work
[7] = previous study (Kang 2015); cited from earlier work
[8] = test system: E. coli DH1; assay: Growth of E. coli DH1 under the screening conditions (MEP pathway blocked by fosmidomycin, IPP-bypass pathway + IPK)
[9] = substrate: C[C@@](O)(CCOP(=O)(O)O)CC(=O)O; assay: In vitro kinetics of MVAP decarboxylation by PMDsc R74H (coupled assay); assay type: biochemical, Saccharomyces cerevisiae; details: other: MVAP 0.100-4.0 mM, 4 mM ATP, pH 7.5, brackets: standard error
[10] = test system: E. coli DH1; assay: Isopentenol production in E. coli via IPP-bypass MVA pathway (GC-FID); assay type: cell-based, Escherichia coli; details: 48 hr
[11] = MVAP 0.100-4.0 mM, 4 mM ATP, pH 7.5, brackets: standard error
[12] = observed turnover number calculated at 100 mM MVAP, noncompetitive substrate inhibition

Molecule: C[C@@](O)(CCOP(=O)(O)O)CC(=O)O [MVAP, mevalonate 5-phosphate]
- kcat/KM [1, 11]: 780 ± 60 M⁻¹ s⁻¹
- increase of kcat/KM compared to wild type ([1]; Y19H versus wild type PMDsc, MVAP): about 10 fold
- kcat/KM [2]: 500 ± 100 M⁻¹ s⁻¹
- Km [3, 11]: 2300 µM
- kcat [3, 11]: 0.15 s⁻¹
- kobs [3, 12]: 0.02 s⁻¹
- kcat (MVAP) ([4]; alternative substrate MVAP): 0.14 s⁻¹
- kcat [5, 11]: 0.14 s⁻¹
- kobs [5, 12]: 0.07 s⁻¹

Molecule: C[C@@](O)(CCOP(=O)(O)OP(=O)(O)O)CC(=O)O [MVAPP, mevalonate 5-diphosphate]
- kcat (MVAPP) ([4]; original substrate MVAPP): 5.4 s⁻¹

B1: Saccharomyces cerevisiae diphosphomevalonate decarboxylase (PMDsc, SEQ ID NO: 1) variant R74H (Saccharomyces cerevisiae S288C; R74H) (protein)
chain: MTVYTASVTAPVNIATLKYWGKRDTKLNLPTNSSISVTLSQDDLRTLTSAATAPEFERDTLWLNGEPHSIDNEHTQNCLRDLRQLRKEMESKDASLPTLSQWKLHIVSENNFPTAAGLASSAAGFAALVSAIAKLYQLPQSTSEISRIARKGSGSACRSLFGGYVAWEMGKAEDGHDSMAVQIADSSDWPQMKACVLVVSDIKKDVSSTQGMQLTVATSELFKERIEHVVPKRFEVMRKAIVEKDFATFAKETMMDSNSFHATCLDSFPPIFYMNDTSKRIISWCHTINQFYGETIVAYTFDAGPNAVLYYLAENESKLFAFIYKLFGSVPGWDKKFTTEQLEAFNHQFESSNFTARELDLELQKDVARVILTQVGSGPQETNESLIDAKTGLPKE
notes: His tag; made in house; host or cells: E. coli Rosetta (DE3)
- isopentenol titer [6]: 770.3 mg/L
- activity of WT for phosphomevalonate (MVAP) [7]: 220%
- competitive growth of mixed culture (WT, K22M, R74H) ([8]; 10 μM fosmidomycin, several dilutions, sequencing): dominant strain
- Growth rate ([8]; 10-fold higher inducer concentration (100 nM aTc)): 0.83±0.01 hr^1
- Growth rate ([8]; Table 2, screening conditions, standard deviation in brackets): 0.68 (0.04) hr^−1
- Growth rate ([8]; screening conditions): 0.68 ± 0.04 h⁻¹
- growth under fosmidomycin selection pressure ([8]; screening platform): grew faster than the strain with WT PMDsc
- Km [9]: 0.75 (0.05) mM
- kcat [9]: 0.33 (0.03) sec^−1
- kcat/Km [9]: 0.44 (0.05) mM^−1 sec^−1
- 48 hr Titer (isopentenol) [10]: 770 (263) mg/L
